Target: the molecule itself
Assay: cross-linking

B1: Flag-PKM2 K207R (enzyme)
chain: not shown
Does B1 bind?
Result: binds
